Publication PMC4285326, “Structure and interactions of the Bacillus subtilis sporulation inhibitor of DNA replication, SirA, with domain I of DnaA” (Molecular Microbiology, 2014)
Values belong to the binder of their own block, whether it stands above or below them.

B1: SirA (sporulation inhibitor of DNA replication), Bacillus subtilis (natural protein, B. subtilis, UniProt P45707 1-148, looked up)
chain: MERHYYTYLIKEEFANHYFGRESVMFELFQDYHWTSLEKQQYEMTEKQIQYITQPIPILHMHQRLKMNLNKTDYRQLDYIYRIALPKAKGHATFMMKEHMIEIVASGDYEAETIFFEVLRKVSPCFLAMDFNSKRYGWLNPVKERNFV
modifications: 2-mercaptoethanol linked through a disulphide bond to Cys125 (seen in the crystal and by mass spectrometry)
notes: SirA, B. subtilis, amplified from genomic DNA, untagged; model has residues 2-141, Met1 and residues 142-148 disordered; Soluble only when coexpressed with DnaA^DI; A selenomethionine-substituted form was also crystallised for phasing; also called wild type SirA; native SirA; source: E. coli BL21 (DE3), coexpressed with His-DnaA^DI from pET-YSBLIC3C-DnaA^DISirA
B2: DnaA domain I (DnaA^DI), Bacillus subtilis, His-tag removed (domain or fragment, B. subtilis)
chain: GPAMENILDLWNQALAQIEKKLSKPSFETWMKSTKAHSLQGDTLTITAPNEFARDWLESRYLHLIADTIYELTGEELSIKFVIPQ
notes: DnaA, B. subtilis, domain I (N-terminal domain); residues 1-81 defined in the crystal, C-terminal Gln82 disordered; Calculated molecular mass 9.7 kDa; also called N-terminal domain of DnaA; not shown: His6, N-terminal, cleaved
B4: His-tagged DnaA domain I (His-DnaA^DI), Bacillus subtilis (domain or fragment, B. subtilis, UniProt P05648 1-82, looked up)
chain: MENILDLWNQALAQIEKKLSKPSFETWMKSTKAHSLQGDTLTITAPNEFARDWLESRYLHLIADTIYELTGEELSIKFVIPQ
notes: DnaA, B. subtilis, domain I (N-terminal domain); residues 1-81 defined in the crystal, C-terminal Gln82 disordered; 3C protease cleavable N-terminal His-tag, not cleaved in these experiments; also called His-tagged DnaA^DI; wild type DnaA^DI; source: E. coli BL21 (DE3), coexpressed with SirA from pET-YSBLIC3C-DnaA^DISirA; not shown: His6, N-terminal, kept

What was measured:
[1] = target: B2; test: SEC-MALS; Superdex 75 HR 10/30, 50 mM Tris pH 8.5, 200 mM KCl, 0.5 ml min^-1; DnaA^DI at 1.0, 2.5 and 5.0 mg ml^-1; SirA-DnaA^DI at 0.5, 1.0 and 2.5 mg ml^-1; details: both partners purified
[2] = target: T1, DnaA domain I (DnaA^DI), Bacillus subtilis, His-tag removed (Bacillus subtilis (strain 168), UniProt P05648); test: SEC-MALLS (1:1 heterodimer), Ni-NTA co-purification/pull-down, crystal structure; SirA soluble only when co-expressed with DnaA^DI; complex purified as such, not mixed from separate proteins
T1 chain: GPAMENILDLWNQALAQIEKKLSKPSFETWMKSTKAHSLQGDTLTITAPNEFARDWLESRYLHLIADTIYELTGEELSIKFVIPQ

[3] = target: B1; test: crystal structure; native crystals, space group P2_1, two complexes per asymmetric unit; 100 mM HEPES pH 7.5, 200 mM NH4 acetate, 25% PEG 3350, 1% DMF; SAD phasing from SeMet crystals, then molecular replacement; details: both partners purified
[4] = target: B4; test: pull-down; soluble lysate of E. coli coexpressing His-DnaA^DI and untagged SirA loaded onto a HisTrap FF crude Ni-affinity column in 50 mM Tris pH 8.5, 200 mM KCl, 20 mM imidazole, 10 mM BME; washed; eluted with 500 mM imidazole; eluates normalised to DnaA^DI, SDS-PAGE with Coomassie staining, bands quantified with ImageJ; details: partners not purified
[5] = target: B1; test: as above; details: partners not purified

fold lower recovery relative to wild type SirA [4]: 1.5 fold
B3: SirA Q48A, Bacillus subtilis (natural protein, B. subtilis, UniProt P45707 1-148, looked up)
chain: MERHYYTYLIKEEFANHYFGRESVMFELFQDYHWTSLEKQQYEMTEKAIQYITQPIPILHMHQRLKMNLNKTDYRQLDYIYRIALPKAKGHATFMMKEHMIEIVASGDYEAETIFFEVLRKVSPCFLAMDFNSKRYGWLNPVKERNFV
notes: SirA, B. subtilis, untagged, with Gln48Ala; also called Gln48Ala; source: E. coli BL21, coexpressed with His-DnaA^DI, in soluble lysate

fold lower recovery relative to wild type SirA [4]: 1.5 fold
B5: SirA F14A, Bacillus subtilis (natural protein, B. subtilis, UniProt P45707 1-148, looked up)
chain: MERHYYTYLIKEEAANHYFGRESVMFELFQDYHWTSLEKQQYEMTEKQIQYITQPIPILHMHQRLKMNLNKTDYRQLDYIYRIALPKAKGHATFMMKEHMIEIVASGDYEAETIFFEVLRKVSPCFLAMDFNSKRYGWLNPVKERNFV
notes: SirA, B. subtilis, untagged, with Phe14Ala; also called Phe14Ala; source: E. coli BL21, coexpressed with His-DnaA^DI, in soluble lysate

fold lower recovery relative to wild type SirA [4]: 2.5 fold
B6: SirA Y18A, Bacillus subtilis (natural protein, B. subtilis, UniProt P45707 1-148, looked up)
chain: MERHYYTYLIKEEFANHAFGRESVMFELFQDYHWTSLEKQQYEMTEKQIQYITQPIPILHMHQRLKMNLNKTDYRQLDYIYRIALPKAKGHATFMMKEHMIEIVASGDYEAETIFFEVLRKVSPCFLAMDFNSKRYGWLNPVKERNFV
notes: SirA, B. subtilis, untagged, with Tyr18Ala; also called Tyr18Ala; source: E. coli BL21, coexpressed with His-DnaA^DI, in soluble lysate

The remaining lines, values behind:

Binder: B1
stoichiometry N [1]: 1
binding result [2]: binds

Binder: B2
binding result [3]: binds

Binder: B4
binding result [5]: binds
